Measured values reported in IntAct's records for PubMed 22115042.

Tests used:
dock3_mouse Dock3 [1] = biological target: dock3_mouse Dock3 (UniProt Q8CIQ7)
dock3_mouse Dock3 [2] = biological target: dock3_mouse Dock3 (UniProt Q8CIQ7); remark: listed apart in the source

Sequence of Presenilin-2 (Homo sapiens), P49810 N141I (P49810 whole entry N141I): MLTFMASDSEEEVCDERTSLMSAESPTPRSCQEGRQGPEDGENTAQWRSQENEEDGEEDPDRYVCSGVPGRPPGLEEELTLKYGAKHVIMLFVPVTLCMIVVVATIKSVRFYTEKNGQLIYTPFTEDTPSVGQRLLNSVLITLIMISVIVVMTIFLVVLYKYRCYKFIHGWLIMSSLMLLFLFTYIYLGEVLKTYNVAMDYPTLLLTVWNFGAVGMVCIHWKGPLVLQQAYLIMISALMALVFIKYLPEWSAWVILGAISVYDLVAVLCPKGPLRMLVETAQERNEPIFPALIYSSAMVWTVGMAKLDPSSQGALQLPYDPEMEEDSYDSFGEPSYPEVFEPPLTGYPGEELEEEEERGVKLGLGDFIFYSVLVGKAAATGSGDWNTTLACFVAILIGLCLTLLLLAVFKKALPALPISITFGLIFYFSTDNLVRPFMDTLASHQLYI

Row | Substance | effect of a mutation on the interaction (dock3_mouse Dock3 [1]) | effect of a mutation on the interaction (dock3_mouse Dock3 [2])
1 | Presenilin-1 (Homo sapiens) (from UniProt P49768) C410Y | increasing interaction strength | –
2 | Presenilin-1 (Homo sapiens) (from UniProt P49768) M146L | increasing interaction strength | –
3 | Presenilin-2 (Homo sapiens), P49810 N141I | – | with no effect
